Assay results reported in paper PMC5737116, “Biochemical Properties of Human D-Amino Acid Oxidase” (Frontiers in Molecular Biosciences, 2017).

Key:
Settings in all cases: other: apparent, 21% oxygen saturation, pH 8.5, 25°C
N[C@@H]1CON=C1O = test system: T1, N[C@@H]1CON=C1O; assay: Oxygen-consumption activity assay, apparent kinetic parameters (substrate specificity); assay type: biochemical, human
T1 construct: made in house; host or cells: E. coli

N[C@H](CS)C(=O)O = test system: T2, N[C@H](CS)C(=O)O; assay: as above; assay type: biochemical, human
T2 construct: made in house; host or cells: E. coli

[1] = test system: N[C@H](Cc1ccc(O)c(O)c1)C(=O)O; assay: purified protein, by the assay type

Sequence of human DAAO (Homo sapiens) (chain, as listed by the source): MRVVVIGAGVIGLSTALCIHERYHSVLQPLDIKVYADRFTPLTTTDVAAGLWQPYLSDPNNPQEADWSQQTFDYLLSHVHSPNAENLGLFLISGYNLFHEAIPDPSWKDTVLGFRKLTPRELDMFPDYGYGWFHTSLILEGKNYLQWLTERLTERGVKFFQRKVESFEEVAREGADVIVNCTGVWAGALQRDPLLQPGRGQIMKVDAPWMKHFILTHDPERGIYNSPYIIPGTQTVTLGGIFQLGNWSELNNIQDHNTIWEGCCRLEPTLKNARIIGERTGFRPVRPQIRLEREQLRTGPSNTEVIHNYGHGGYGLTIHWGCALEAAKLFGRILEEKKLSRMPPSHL

Question: What does the source list for human DAAO (Homo sapiens)?
Answer: Km (N[C@@H]1CON=C1O): 83.5 ± 15.0 mM; kcat (N[C@@H]1CON=C1O): 0.77 ± 0.05 s⁻¹; kcat/Km (N[C@@H]1CON=C1O): 9 M⁻¹ s⁻¹; Km (N[C@H](CS)C(=O)O): 0.6 ± 0.1 mM; kcat (N[C@H](CS)C(=O)O): 8.6 ± 0.2 s⁻¹; kcat/Km (N[C@H](CS)C(=O)O): 14600 M⁻¹ s⁻¹; Km [1]: 6 mM; kcat [1]: 40.5 ± 5.1 [21.7]^d s^−1; kcat/Km [1]: 6.75 [14.4]^d mM^−1 x s^−1
